# Assay: soluble on expression in E. coli; label from the status in PepcDB or PDB records
row,Sequence,soluble on expression in E. coli
1,MEMSHRSSYFQSIIDEAGSLLRELMNIPDEYEVLFLQGGASLQFSMIPLNLMNTYKKAGYVLTGSWSKKALQEAEKVGEVQVIASSENEKFTTIPKLDGLLGDEKLDYVHITTNNTIEGTKYVDIPHVDKVPLVADMSPNILSERYDVSKFGLIYAGAQKNLGPAGLTIAIIKRDLIGGADRYCPTMLNYETYSKNNSLYNTLPSFSIYVTKLVLEWLKEQGGVSAIEEQNKMKSSLLYNFLDESKLLTSPVDPAYRSLMNIPFTTPSEELNNEFLQKAKERGLVTLKGHRSVGGMRASIYNAMPVQGVQQLVNYMKEFELENR,not soluble
2,SNAMLKREMNIADYDAELWQAMEQEKVRQEEHIELIASENYTSPRVMQAQGSQLTNKYAEGYPGKRYYGGCEYVDVVEQLAIDRAKELFGADYANVQPHSGSQANFAVYTALLQPGDTVLGMNLAQGGHLTHGSPVNFSGKLYNIVPYGIDESGKIDYDEMAKLAKEHKPKMIIGGFSAYSGVVDWAKMREIADSIGAYLFVDMAHVAGLIAAGVYPNPVPHAHVVTTTTHKTLAGPRGGLILAKGGDEELYKKLNSAVFPSAQGGPLMHVIAGKAVALKEAMEPEFKVYQQQVAKNAKAMVEVFLNRGYKVVSGGTENHLFLLDLVDKNLTGKEADAALGRANITVNKNSVPNDPKSPFVTSGIRIGSPAVTRRGFKEAEVKELAGWMCDVLDNINDEATIERVKAKVLDICARFPVYA,soluble
3,MGHHHHHHSHMAAMLNFNLQQLCGPKCRDLKVENPEKYGFEPKKLLDQLTDIYLQLDCARFAKAIADDQRSYSKELFEEVISKMRKAGIKSTIAIEKFKLLAEKVEEIVAKNARAEIDYSDAPDEFRDPLMDTLMTDPVRLPSGTIMDRSIILRHLLNSPTDPFNRQTLTESMLEPVPELKEQIQAWMREKQNSDH,soluble
4,MGSDKIHHHHHHMTKSDLLFDKFNDKHGKFLVFFGTFVDTPKLGELRIREKTSVGVLNGIIRFVNRNSLDPVKDCLDHDSSLSPEDVTVVDIIGKDKTRNNSFYFPGFVDTHNHVSQYPNVGVFGNSTLLDWLEKYTFPIEAALANENIAREVYNKVISKTLSHGTTTVAYYNTIDLKSTKLLAQLSSLLGQRVLVGKVCMDTNGPEYYIEDTKTSFESTVKVVKYIRETICDPLVNPIVTPRFAPSCSRELMQQLSKLVKDENIHVQTHLSENKEEIQWVQDLFPECESYTDVYDKYGLLTEKTVLAHCIHLTDAEARVIKQRRCGISHCPISNSSLTSGECRVRWLLDQGIKVGLGTDVSAGHSCSILTTGRQAFAVSRHLAMRETDHAKLSVSECLFLATMGGAQVLRMDETLGTFDVGKQFDAQMIDTNAPGSNVDMFHWQLKEKDQMQEQEQEQGQDPYKNPPLLTNEDIIAKWFFNGDDRNTTKVWVAGQQVYQI,not soluble
5,MVKTMKWARIGDIIVLNREADDPEALLEMEGVRSVIRVEGIHGPLRRPRVRVLAGSGTETVHKENGCLFRIDLSRVMWSRGNINERARIPSLVEEGETVVDMFAGIGYFSIPVAVHSDPGRVYSVELNPDSFELLKSNITLNRVEGIIEPILGDCREVAPELDADRVIMGYVGRTHHFLDAAMECVRDGGVIHYHETAPEAIRFSRPLRRIERAAHPRRVSLLDKRVIKKYSPGVWHVVLDVRIH,soluble
6,TLKEMKYKRNQEEIETYYEYTLKIEAINNEMRKFRHDYVNILTTLSEYIREDDMIGLRAYFNKNIVPMKDNLQMNAIKLNGIENLKVREIKGLITAKILRAQEMNIPISIEIPDEVSSINLNMIDLSRSIGIILDNAIEASTEIDDPIIRVAFIESENSVTFIVMNKCADDIPRIHELFQESFSTKGEGRGLGLSTLKEIADNADNVLLDTIIENGFFIQKVEIINN,not soluble
7,MASMTGGQQMGRGMAGPEIVKLKKILREKAVPPGTEVPLDVMRKGMEKVAFKAADDIQVEQVTVAGCAAEWVRAPGCQAGKAILYLHGGGYVMGSINTHRSMVGEISRASQAAALLLDYRLAPEHPFPAAVEDGVAAYRWLLDQGFKPQHLSISGDSAGGGLVLAVLVSARDQGLPMPASAIPISPWADMTCTNDSFKTRAEADPMVAPGGINKMAARYLNGADAKHPYASPNFANLKGLPPLLIHVGRDEVLLDDSIKLDAKAKADGVKSTLEIWDDMIHVWHAFHPMLPEGKQAIVRVGEFMREQWAALAAALEHHHHHH,soluble
8,MGPAPRVLELFYDVLSPYSWLGFEVLCRYQHLWNIKLKLRPALLAGIMKDSGNQPPAMVPHKGQYILKEIPLLKQLFQVPMSVPKDFFGEHVKKGTVNAMRFLTAVSMEQPEMLEKVSRELWMRIWSRDEDITESQNILSAAEKAGMATAQAQHLLNKISTELVKSKLRETTGAACKYGAFGLPTTVAHVDGKTYMLFGSDRMELLAYLLGEKWMGPVPPTLNARL,soluble
9,MAHHHHHHSLISNHFLRDLYAIIVDDVGRFKPSAILDVGCGTGTADYFILSAFPDISVDCIDPSPYMISIARKKLSKFGSRVRAELGSSRSIPFDRRYDFVFTSISFHHWKCREDGLRNMAKYVSDHGVLAVYEYYRPNLRSFHRVAGKHALTMEDVEKLNIEGFTKKYEIRGEMMRIMFQRDEG,soluble
10,VVPGPVHTSPREVAGPVDVLILAVKATQNDAARPWLTRLCDERTVVAVLQNGVEQVEQVQPHCPSSAVVPAIVWCSAETQPQGWVRLRGEAALVVPTGPAAEQFAGLLRGAGATVDCDPDFTTAAWRKLLVNALAGFMVLSGRRSAMFRRDDVAALSRRYVAECLAVARAEGARLDDDVVDEVVRLVRSAPQDMGTSMLADRAAHRPLEWDLRNGVIVRKARAHGLATPISDVLVPLLAAASDGPG,not soluble
11,MGHHHHHHSHMMQSVDVVIIGGGMVGLALAAALKESDLRIAVVENQLPEEALNPLPDVRVSALSRSSEIVLRNLNAWAGIEARRAAPYIAMEVWEQDSFARIEFKANEMTQPNLGHIVENRVIQLALFEQVQQQANVTLHVPATCQSIAVGESEAWLTLSNGQALSAKLVVGADGANSWLRRQMDIPLTHWDYGHSALVANVRTSDPHNKVARQIFTAQGPLAFLPMSEPHMSSIVWSTEPSRAEALLNMNDVQFNKALTAEFDARLGRCEVVGERQAFPLKMRYARDFVAPRVALVGDAAHTIHPLAGQGVNLGLLDAACLAQELLSLWQQNRDIGDERNLRHYERWRKAEAAKMIAAMQGFRDLFEGDNPAKKLIRGIGMRLVGQLPGAKDEIMKRALGLKGDLPELAKQVWLERAY,soluble
12,MVAIDYVVIGAGYAGLMCAEALMDKGFKTLVFDMRESGGEIVVFSKLEEFRSKYEKYIEKIEEIRKDIPVDIGTVIKSKPVIINSGNGLKRYEARRVILATGATDTAPVKLNVLSKKIEGIYTLENALREISENNKIGEKVLIAAKDDVIVKLAESQLSDLGYDVEISELTNDIQVIGKERVEGVEISGVRYSCDTLVVYGGRNPFNPLKLRGTPVGNVVTCTYDYSKVEENVKNFLAKILEHHHHHH,not soluble
13,SNAMRMIDIIEKKRDGHTLTTEEINFFIGGYVKGDIPDYQASSLAMAIYFQDMNDDERVALTMAMVNSGDMIDLSDIKGVKVDKHSTGGVGDTTTLVLAPLVAAVDVPVAKMSGRGLGHTGGTIDKLEAIDGFHVEIDEATFVKLVNENKVAVVGQSGNLTPADKKLYALRDVTGTVNSIPLIASSIMSKKIAAGADAIVLDVKTGSGAFMKTLEDAEALAHAMVRIGNNVGRNTMAIISDMNQPLGRAIGNALELQEAIDTLKGQGPKDLTELVLTLGSQMVVLANKAETLEEARALLIEAINSGAALEKFKTFIKNQGGDETVIDHPERLPQAQYQIEYKAKKSGYVTELVSNDIGVASMMLGAGRLTKEDDIDLAVGIVLNKKIGDKVEEGESLLTIHSNRQDVDDVVKKLDSSITIADHVVSPTLIHKIITE,soluble
14,MAARRAPISRRDRPAKPALSRRWIVDTAVALMRAEGLEKVTMRRLAQELDTGPASLYVYVANTAELHAAVLDALLGEVDLTGAGAEEDWREQLRAVLTSYTLVLFAHPQLARSALVARPSGENYLRLVERVLELLARSGAPGAQVAWGVDKLLQDATATAAEQATQEHDPASHEDWSATVRALRDADEATHPAIASHMPLLVAGSAHDRLRWSFDVLVNGITRTPVPGPARGAAG,soluble

# Source: the DeepSol protein solubility set
